Assay results as given in US20230203463, “RNA-GUIDED NUCLEASES AND ACTIVE FRAGMENTS AND VARIANTS THEREOF AND METHODS OF USE” (LifeEDIT Therapeutics, Inc., published 2023).

Key:
APG05405 (Bacillus sp.) = system: T1, APG05405 (Bacillus sp.); assay: cleavage_in_vitro; conditions: trans cleavage
T1 sequence: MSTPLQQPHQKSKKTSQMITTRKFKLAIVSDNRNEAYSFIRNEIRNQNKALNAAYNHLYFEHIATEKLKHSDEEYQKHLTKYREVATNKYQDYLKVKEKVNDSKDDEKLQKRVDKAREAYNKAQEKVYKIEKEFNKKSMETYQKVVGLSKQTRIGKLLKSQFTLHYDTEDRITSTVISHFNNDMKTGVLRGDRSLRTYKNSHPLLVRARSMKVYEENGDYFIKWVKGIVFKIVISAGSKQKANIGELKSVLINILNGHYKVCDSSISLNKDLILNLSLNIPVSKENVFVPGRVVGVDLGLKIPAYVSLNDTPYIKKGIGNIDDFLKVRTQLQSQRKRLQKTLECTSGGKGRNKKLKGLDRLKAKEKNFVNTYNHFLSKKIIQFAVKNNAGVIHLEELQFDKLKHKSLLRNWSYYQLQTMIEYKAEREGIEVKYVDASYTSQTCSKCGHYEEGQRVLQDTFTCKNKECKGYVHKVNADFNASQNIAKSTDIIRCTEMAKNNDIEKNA

APG09624 = target: T2, APG09624 (Bacillus sp.); assay: thermal shift; peaks 39 and 44 C vs 38 C without RNA; conditions: tags: C-terminal His10
T2 chain: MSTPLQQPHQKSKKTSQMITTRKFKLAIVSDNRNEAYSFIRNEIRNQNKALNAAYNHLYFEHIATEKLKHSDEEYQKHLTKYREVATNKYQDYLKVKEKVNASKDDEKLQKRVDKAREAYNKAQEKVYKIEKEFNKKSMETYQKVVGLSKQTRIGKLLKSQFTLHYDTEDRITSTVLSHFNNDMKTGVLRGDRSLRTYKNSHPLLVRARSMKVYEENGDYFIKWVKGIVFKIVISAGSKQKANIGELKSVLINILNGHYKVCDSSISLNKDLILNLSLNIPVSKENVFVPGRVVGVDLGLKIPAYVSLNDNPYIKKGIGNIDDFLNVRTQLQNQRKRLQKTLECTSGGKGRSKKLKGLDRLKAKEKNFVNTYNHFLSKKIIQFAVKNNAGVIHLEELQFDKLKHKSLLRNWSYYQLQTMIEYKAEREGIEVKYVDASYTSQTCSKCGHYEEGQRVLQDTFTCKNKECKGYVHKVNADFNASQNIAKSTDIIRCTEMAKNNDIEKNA
Description: (§1) RNA binding was confirmed by differential scanning fluorimetry (Niesen, F.H., H. Berglund, and M. Vedadi. 2007. Nat. Protoc. 2: 2212-2221). Dual RNA complexes were produced by mixing an excess of crRNA with tracrRNA in Annealing Buffer (Synthego, 60 mM KCl 6 mM HEPES pH 7). The candidate effector protein and guide RNA (either dual RNA complex or sgRNA) were incubated at final concentrations of 0.5 µM effector protein and 1 µM guide RNA in phosphate buffered saline (PBS, Thermo Fisher). These were incubated for 20 minutes at room temperature and then mixed 1:1 with Sypro Orange dye solution that had been diluted in PBS. A melt curve was obtained measuring fluorescence intensity (FI) as a function of temperature and the first derivative of the melt curve (dFI/dT) was calculated. A shift in the plot of dFI/dT as a function of temperature of the putative RNP relative to the original nuclease indicates RNA binding and was used to evaluate putative guide RNA combinations. […] Peak 1 refers to the temperature associated with the largest observed peak for the given sample. If a second peak is observed, it is indicated in the Peak 2 column. Interpretation of the data regarding the formation of a complex is indicated in the “Binding?” column Table 3. “Yes” indicates binding was observed. “N/A” indicates sufficient data was not available to determine if binding could occur.

APG05405 = target: T3, APG05405 (Bacillus sp.); assay: thermal shift; peak 43 C vs 36 C without RNA; conditions: tags: C-terminal His10
T3 chain: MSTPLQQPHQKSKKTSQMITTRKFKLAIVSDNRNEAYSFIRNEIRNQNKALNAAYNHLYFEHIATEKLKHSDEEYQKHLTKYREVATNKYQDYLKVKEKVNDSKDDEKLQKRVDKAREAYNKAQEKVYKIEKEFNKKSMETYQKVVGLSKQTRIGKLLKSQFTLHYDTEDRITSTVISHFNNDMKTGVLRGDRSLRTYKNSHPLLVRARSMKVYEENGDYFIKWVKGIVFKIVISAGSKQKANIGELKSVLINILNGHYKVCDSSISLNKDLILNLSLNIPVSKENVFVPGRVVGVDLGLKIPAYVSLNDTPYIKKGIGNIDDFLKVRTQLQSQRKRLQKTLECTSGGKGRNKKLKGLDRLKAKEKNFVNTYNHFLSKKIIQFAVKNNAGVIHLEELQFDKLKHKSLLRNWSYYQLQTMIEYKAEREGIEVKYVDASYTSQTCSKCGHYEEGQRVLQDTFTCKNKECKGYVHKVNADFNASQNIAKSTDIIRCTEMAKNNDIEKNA
Description: as §1

Molecule: GGGAAACAGCUAGAAUGUAACUUAAAGUAGGUCAAUGUUUAAAUUCGAUGUUGCAAUUUGUUUGGACAAGUGGAUUAAAACGUUCCUUGAAAAUCAUAUAAAGCAGCCAGUUUACGGGCUUGGGCGAAUUUGCGUCCAAAGGGUGAGGCCAGGUGUAAGUAAGAACCUACAAAAGCACUCACCAAAGGGUCAAAAAGAUCCUACAUGGAUGUGAGGAUUGAAAUUGGAAUGGGAACUAAAGU / TCGTCGGCAGCGTCAGATGTGTATAAGAGACAGAACGACGGCCAGTGAATTNNNNNTGGAATGGGAACTAAAGTAATGGCAAACGAATTCGTAGGATCCTCTAGAGTCGACCTGCTGTCTCTTATACACATCTCCGAGCCCACGAGAC / GTCTCGTGGGCTCGGAGATGTGTATAAGAGACAGCAGGTCGACTCTAGAGGATCCTACGAATTCGTTTGCCATTACTTTAGTTCCCATTCCANNNNNAATTCACTGGCCGTCGTTCTGTCTCTTATACACATCTGACGCTGCCGACGA [sgRNA Gsg.3 ; dsPCR3]
- activity (APG05405 (Bacillus sp.); NEBuffer 2, 37 C, degenerate 5 bp 5' of target, PAM not determined): 780 AU/min

Molecule: GGGAAACAGCUAGAAUGUAACUUAAAGUAGGUCAAUGUUUAAAUUCGAUGUUGCAAUUUGUUUGGACAAGUGGAUUAAAACGUUCCUUGAAAAUCAUAUAAAGCAGCCAGUUUACGGGCUUGGGCGAAUUUGCGUCCAAAGGGUGAGGCCAGGUGUAAGUAAGAACCUACAAAAGCACUCACCAAAGGGUCAAAAAGAUCCUACAUGGAUGUGAGGAUUGAAAUACUACAACAGCCACAACG / TCGTCGGCAGCGTCAGATGTGTATAAGAGACAGAACGACGGCCAGTGAATTNNNNNNNNACTACAACAGCCACAACGTCTATATCATGGGATCCTCTAGAGTCGACCTGCTGTCTCTTATACACATCTCCGAGCCCACGAGAC / GTCTCGTGGGCTCGGAGATGTGTATAAGAGACAGCAGGTCGACTCTAGAGGATCCCATGATATAGACGTTGTGGCTGTTGTAGTNNNNNNNNAATTCACTGGCCGTCGTTCTGTCTCTTATACACATCTGACGCTGCCGACGA [sgRNA Gsg.2 ; dsPCR2]
- activity (APG05405 (Bacillus sp.); NEBuffer 2, 37 C, degenerate 8 bp 5' of target, PAM not determined): 768 AU/min

Molecule: GGGAAACAGCUAGAAUGUAACUUAAAGUAGGUCAAUGUUUAAAUUCGAUGUUGCAAUUUGUUUGGACAAGUGGAUUAAAACGUUCCUUGAAAAUCAUAUAAAGCAGCCAGUUUACGGGCUUGGGCGAAUUUGCGUCCAAAGGGUGAGGCCAGGUGUAAGUAAGAACCUACAAAAGCACUCACCAAAGGGUCAAAAAGAUCCUACAUGGAUGUGAGGAUUGAAAUUGGAAUGGGAACUAAAGU / TCGTCGGCAGCGTCAGATGTGTATAAGAGACAGAACGACGGCCAGTGAATTNNNNNNNNACTACAACAGCCACAACGTCTATATCATGGGATCCTCTAGAGTCGACCTGCTGTCTCTTATACACATCTCCGAGCCCACGAGAC / GTCTCGTGGGCTCGGAGATGTGTATAAGAGACAGCAGGTCGACTCTAGAGGATCCCATGATATAGACGTTGTGGCTGTTGTAGTNNNNNNNNAATTCACTGGCCGTCGTTCTGTCTCTTATACACATCTGACGCTGCCGACGA [sgRNA Gsg.3 ; dsPCR2]
- activity (APG05405 (Bacillus sp.); non-matching guide): 78 AU/min

Molecule: GGGAAACAGCUAGAAUGUAACUUAAAGUAGGUCAAUGUUUAAAUUCGAUGUUGCAAUUUGUUUGGACAAGUGGAUUAAAACGUUCCUUGAAAAUCAUAUAAAGCAGCCAGUUUACGGGCUUGGGCGAAUUUGCGUCCAAAGGGUGAGGCCAGGUGUAAGUAAGAACCUACAAAAGCACUCACCAAAGGGUCAAAAAGAUCCUACAUGGAUGUGAGGAUUGAAAUACUACAACAGCCACAACG / TCGTCGGCAGCGTCAGATGTGTATAAGAGACAGAACGACGGCCAGTGAATTNNNNNTGGAATGGGAACTAAAGTAATGGCAAACGAATTCGTAGGATCCTCTAGAGTCGACCTGCTGTCTCTTATACACATCTCCGAGCCCACGAGAC / GTCTCGTGGGCTCGGAGATGTGTATAAGAGACAGCAGGTCGACTCTAGAGGATCCTACGAATTCGTTTGCCATTACTTTAGTTCCCATTCCANNNNNAATTCACTGGCCGTCGTTCTGTCTCTTATACACATCTGACGCTGCCGACGA [sgRNA Gsg.2 ; dsPCR3]
- activity (APG05405 (Bacillus sp.); non-matching guide): 102 AU/min

B1: crRNA 143 + tracrRNA 145 (ssRNA)
RNA 1: GUCACAUCCUACAUGGAUGUGAGGAUUGAAAUUGGAAUGGGAACUAAAGUAAUGG
RNA 2: AAACAGCUAGAAUGUAACUUAAAGUAGGUCAAUGUUUAAAUUCGAUGUUGCAAUUUGUUUGGACAAGUGGAUUAAAACGUUCCUUGAAAAUCAUAUAAAGCAGCCAGUUUACGGGCUUGGGCGAAUUUGCGUCCAAAGGGUGAGGCCAGGUGUAAGUAAGAACCUACAAAAGCACUCACCAAAGGGUCAACUCGAUACAUU
- binding result (APG09624): binds
- binding result (APG05405): binds
